Measured values from patent publication US20240018252A1.
Residue numbers refer to the chain shown, from its start. Names may count otherwise. “And” between values parts separate entries of the source, which are not always exact repeats. Identical values can stand only once. Each block holds one binder with its values, some of them ahead of it.

Assays:
[1] = molecular target: human CD3 (huCD3ed) (human) (UniProt P07766); assay: Biacore SPR, bispecific hIgG2dA format, 37 C; CD3 antigen not given
[2] = molecular target: human BCMA on BCMA-expressing tumor cells (human) (UniProt Q02223); assay: cell-based or functional assay
Sequence of human BCMA on BCMA-expressing tumor cells (human) (Q02223 whole entry): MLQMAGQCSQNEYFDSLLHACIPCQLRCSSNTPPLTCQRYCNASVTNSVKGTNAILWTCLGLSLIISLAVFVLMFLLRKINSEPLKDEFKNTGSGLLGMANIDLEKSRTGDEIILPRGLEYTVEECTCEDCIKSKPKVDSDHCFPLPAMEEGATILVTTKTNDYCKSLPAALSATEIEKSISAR

Sequence of human CD3 (huCD3ed) (human) (P07766 23-126, chain 1 of 2): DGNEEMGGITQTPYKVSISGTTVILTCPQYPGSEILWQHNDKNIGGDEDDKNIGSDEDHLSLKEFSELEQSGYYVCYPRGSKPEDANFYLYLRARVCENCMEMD
Sequence of human CD3 (huCD3ed) (human) (P04234 22-105, chain 2 of 2, further chain): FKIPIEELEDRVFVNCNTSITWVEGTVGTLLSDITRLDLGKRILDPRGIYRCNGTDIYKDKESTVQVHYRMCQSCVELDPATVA

- Kd [1]: 40.4 nM
- koff [1]: 0.0237 s⁻¹
- kon [1]: 586000 M⁻¹ s⁻¹
- t½ [1]: 29.4 s
B1: h2B4-1d_Ep (bispecific antibody, part only; not given: anti-EpCam arm, constant regions, V domains shown, not shown: another chain or arm of the molecule; a dimerising Fc or GST; small tags and cut ends)
VH: EVQLVESGGGLVQPGGSLRLSCAASGFTFSDYYMTWVRQAPGKGLEWVAFIRNRARGYTSDHNASVKGRFTISRDNAKNSLYLQMNSLRAEDTAVYYCARDRPSYYVLDYWGQGTTVTVSS
VL: DIVMTQSPDSLAVSLGERATINCTSSQSLFNVRSRKNYLAWYQQKPGQPPKLLISWASTRESGVPDRFSGSGSGTDFTLTISSLQAEDVAVYYCKQSYDLFTFGSGTKLEIK

- Kd [1]: 54.4 nM
- koff [1]: 0.0258 s⁻¹
- kon [1]: 474000 M⁻¹ s⁻¹
- t½ [1]: 27 s
B2: h2B4-yaesTK_Ep (bispecific antibody, part only; not given: anti-EpCam arm, constant regions, V domains shown, not shown: another chain or arm of the molecule; a dimerising Fc or GST; small tags and cut ends)
VH: B1 VH with H62Y, N63A, A64E
VL: B1 VL with T24K

- Kd [1]: 31 nM
- koff [1]: 0.0213 s⁻¹
- kon [1]: 687000 M⁻¹ s⁻¹
- t½ [1]: 32.4 s
B3: h2B4-TK_Ep (bispecific antibody, part only; not given: anti-EpCam arm, constant regions, V domains shown, not shown: another chain or arm of the molecule; a dimerising Fc or GST; small tags and cut ends)
VH: B1 VH
VL: B1 VL with T24K

- Kd [1]: 31.2 nM
- koff [1]: 0.0235 s⁻¹
- kon [1]: 754000 M⁻¹ s⁻¹
- t½ [1]: 29.4 s
B4: h2B4-hnpsTK_Ep (bispecific antibody, part only; not given: anti-EpCam arm, constant regions, V domains shown, not shown: another chain or arm of the molecule; a dimerising Fc or GST; small tags and cut ends)
VH: B1 VH with A64P
VL: B1 VL with T24K

- Kd [1]: 45 nM
- koff [1]: 0.0581 s⁻¹
- kon [1]: 1.29e+06 M⁻¹ s⁻¹
- t½ [1]: 12 s
B5: h25A8-B5_Ep (bispecific antibody, part only; not given: anti-EpCam arm, constant regions, V domains shown, not shown: another chain or arm of the molecule; a dimerising Fc or GST; small tags and cut ends)
VH: EVQLVESGGGLVKPGGSLRLSCAASGFTFSTYAMNWVRQAPGKGLEWVGRIRSKINNYATYYAESVKGRFTISRDDSKNTLYLQMNSLKTEDTAVYYCVRHETLRSGISWFASWGQGTLVTVSS
VL: QAVVTQEPSLTVSPGGTVTLTCRSSTGAVTTSNYANWVQQKPGQAPRGLIGGTNTRAPGTPARFSGSLLGGKAALTLSGAQPEDEAEYYCVLWYNNYWVFGGGTKLTVL

- Kd [1]: 18.3 nM
- koff [1]: 0.0219 s⁻¹
- kon [1]: 1.2e+06 M⁻¹ s⁻¹
- t½ [1]: 31.8 s
B6: h25A8-B13_Ep (bispecific antibody, part only; not given: anti-EpCam arm, constant regions, V domains shown, not shown: another chain or arm of the molecule; a dimerising Fc or GST; small tags and cut ends)
VH: B5 VH
VL: B5 VL with S24T, Y97H

- Kd [1]: 25.1 nM
- koff [1]: 0.0301 s⁻¹
- kon [1]: 1.2e+06 M⁻¹ s⁻¹
- t½ [1]: 22.8 s
B7: h25A8-C8_Ep (bispecific antibody, part only; not given: anti-EpCam arm, constant regions, V domains shown, not shown: another chain or arm of the molecule; a dimerising Fc or GST; small tags and cut ends)
VH: B5 VH with S30N
VL: B5 VL with Y97H

- Kd [1]: 18.7 nM
- koff [1]: 0.0222 s⁻¹
- kon [1]: 1.19e+06 M⁻¹ s⁻¹
- t½ [1]: 31.2 s
B8: h25A8-B8_Ep (bispecific antibody, part only; not given: anti-EpCam arm, constant regions, V domains shown, not shown: another chain or arm of the molecule; a dimerising Fc or GST; small tags and cut ends)
VH: B5 VH
VL: B5 VL with Y97H

- Kd [1]: 21 nM
- koff [1]: 0.0241 s⁻¹
- kon [1]: 1.15e+06 M⁻¹ s⁻¹
- t½ [1]: 28.8 s
B9: h25A8-B12_Ep (bispecific antibody, part only; not given: anti-EpCam arm, constant regions, V domains shown, not shown: another chain or arm of the molecule; a dimerising Fc or GST; small tags and cut ends)
VH: B5 VH
VL: B5 VL with S24A, Y97H

B10: A02_Rd4_6nM_C01 N297Q/K222R Aclys vc0101 (antibody, V domains shown)
VH: EVQLLESGGGLVQPGGSLRLSCAASGFTFSSYAMNWVRQAPGKGLEWVSAITASGGSTYYADSVKGRFTISRDNSKNTLYLQMNSLRAEDTAVYYCARYWPMSLWGQGTLVTVSS
VL: EIVLTQSPGTLSLSPGERATLSCRASQSVSAYYLAWYQQKPGQAPRLLMYDASIRATGIPDRFSGSGSGTDFTLTISRLEPEDFAVYYCQQYERWPLTFGQGTKVEIK
modifications: N297Q and K222R (EU) in the human IgG1 constant region; AcLys-Val-Cit-PABC-Aur0101 joined by transglutaminase to the glutamine at 297
- EC50, cell viability (CellTiter-Glo, 96 h), KMS12BM LUCGFP (+) [2]: 18.7 nM and 2.8 µg/mL
- EC50, cell viability (CellTiter-Glo, 96 h), L363 LUCGFP (+) [2]: 2.53 nM and 0.38 µg/mL
- EC50, cell viability (CellTiter-Glo, 96 h), MM1.S LUCGFP (BCMA++) [2]: 0.26 nM and 0.04 µg/mL

B11: Combo_Rd4_0.6nM_C29 H7c/N297A/K222R AmPEG6 Aur0131 (antibody, V domains shown)
VH: B10 VH with A33P, N35S, T52G, A53G, T58L, Y59P, S103D, L104I
VL: B10 VL with A31S, Y32S, E93Q, R94S
modifications: H7c tag LLQG (SEQ ID NO: 454), N297A and K222R (EU) in the human IgG1 heavy chain constant region; amino-PEG6-C2-Aur0131 joined by transglutaminase
- EC50, cell viability (CellTiter-Glo, 96 h), KMS12BM LUCGFP (+) [2]: 0.85 nM and 0.13 µg/mL
- EC50, cell viability (CellTiter-Glo, 96 h), L363 LUCGFP (+) [2]: 0.81 nM and 0.12 µg/mL
- EC50, cell viability (CellTiter-Glo, 96 h), MM1.S LUCGFP (BCMA++) [2]: 0.23 nM and 0.03 µg/mL

B12: Combo_Rd4_0.6nM_C29 N297Q/K222R Aclys vc0101 (antibody, V domains shown)
VH: B10 VH with A33P, N35S, T52G, A53G, T58L, Y59P, S103D, L104I
VL: B10 VL with A31S, Y32S, E93Q, R94S
modifications: N297Q and K222R (EU) in the human IgG1 constant region; AcLys-Val-Cit-PABC-Aur0101 joined by transglutaminase to the glutamine at 297
- EC50, cell viability (CellTiter-Glo, 96 h), KMS12BM LUCGFP (+) [2]: 0.99 nM and 0.15 µg/mL
- EC50, cell viability (CellTiter-Glo, 96 h), L363 LUCGFP (+) [2]: 0.66 nM and 0.1 µg/mL
- EC50, cell viability (CellTiter-Glo, 96 h), MM1.S LUCGFP (BCMA++) [2]: 0.11 nM and 0.02 µg/mL
